Laboratory results as given in the supplement of paper PMC10567573.

B1: INTS3 (parent)
chain: EEITEESLEESVGKPLYLIFRNLC

Variants of: B1
Experiment: protein stability index of a GFP-peptide fusion (GPS, HEK-293T) (PSI 1-6); higher = more stable
Settings: c terminus: a fixed tail appended
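Note: lentivirally expressed fusions sorted by FACS into six bins by GFP to DsRed ratio, PSI derived from sequencing read proportions per bin multiplied by bin number.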

Protein stability index, by site and new letter:
E2: C 2.48 | D 2.86 | F 2.38 | G 2.56 | H 2.32 | I 1.91 | K 2.02 | L 2.11 | M 2.1 | N 2.9 | P 2.51 | Q 2.52 | R 2.93 | S 2.58 | T 2.68 | V 2.35 | W 1.74 | Y 1.69
I3: A 3.14 | C 2.65 | D 3.3 | E 3.82 | F 2.79 | G 3.13 | H 3.67 | K 3.04 | L 3 | M 3.29 | N 3.25 | P 3.2 | Q 3.36 | R 2.94 | S 2.84 | T 2.9 | V 3.16 | W 2.18 | Y 2.1
T4: A 2.52 | C 2.46 | D 3.38 | E 2.41 | F 2.01 | G 2.66 | H 2.99 | I 1.98 | K 2.46 | L 2.28 | M 2.23 | N 2.83 | P 2.77 | Q 2.71 | R 2.3 | S 2.4 | V 2.3 | W 1.68 | Y 2.29
E5: A 2.4 | C 2.14 | D 2.72 | F 1.61 | G 2.09 | H 2.62 | I 1.56 | K 2.31 | L 2.1 | M 1.89 | N 2.64 | P 1.98 | Q 2.37 | R 1.96 | S 2.5 | T 2.37 | V 1.72 | W 1.85 | Y 2.03
E6: A 2.01 | C 1.83 | D 2.7 | F 2.23 | G 2.38 | H 2.44 | I 2.06 | K 1.8 | L 1.69 | M 2 | N 2.29 | P 2.49 | Q 2.56 | R 1.99 | S 2.27 | T 2.02 | V 1.76 | W 1.96 | Y 2.39
S7: A 2.88 | C 2.56 | D 2.87 | E 2.77 | F 2.33 | G 2.75 | H 3.13 | I 2.47 | K 2.55 | L 2.33 | M 2.47 | N 2.98 | P 3.02 | Q 2.83 | R 2.98 | T 3.13 | V 3.02 | W 2.46 | Y 2.15
L8: A 3.46 | C 3.3 | D 3.35 | E 3.2 | F 2.57 | G 3.21 | H 3.26 | I 2.47 | K 3.42 | M 2.86 | N 3.34 | P 3.11 | Q 3.32 | R 3.09 | S 3.48 | T 3.42 | V 3.15 | W 1.95 | Y 2.97
E9: A 2.97 | C 2.25 | D 2.77 | F 2.05 | G 2.72 | H 2.35 | I 2.14 | K 2.5 | L 2.93 | M 2.28 | N 2.3 | P 2.18 | Q 2.44 | R 2.41 | S 2.3 | T 2.54 | V 2.14 | W 2.09 | Y 1.96
E10: A 2.64 | C 1.96 | D 3.09 | F 1.92 | G 2.82 | H 2.25 | I 1.77 | K 2.5 | L 2.07 | M 2.24 | N 2.78 | P 2.36 | Q 2.67 | R 2.24 | S 2.79 | T 2.55
